From patent publication US20150307846A1, “GROWTH FACTOR COCKTAIL TO ENHANCE OSTEOGENIC DIFFERENTIATION OF MESENCHYMAL CELLS” (University of Pennsylvania, priority 2012, published 2015) come the findings set out here.

This experiment relates to human periosteum derived cells (hPDCs). The experiment can be described thus: Gene expression of bone markers in hPDCs in 2D culture (Taqman PCR). It counts as cell-based. The settings on record: two stage protocol, six factors minus one, 4 days. The protocol:
Same experimental design as in A. C) Identification of factors involved in osteoblast maturation. hPDCs were treated with OM and TGFβ1 for 6 days, followed by stimulation with GM (negative control), GM containing six factors or GM supplement with six minus one factor for 4 days. The factors are ascorbic acid (Asc. Ac., 57 μM), TNFα (50 ng/ml), IL6 (10 ng/ml), EGF (20 ng/ml), Ca (6 mM) and Pi (4 mM). To evaluate osteoblast maturation, gene expression of RUNX2, OSX, DLX5, iBSP, OC and RANKL is measured with Taqman PCR. […] Gene expression is expressed as fold increase as compared to the GM condition. […] Gene expression is expressed as fold increase as compared to hPDCs cultured in OM/TGFβ1 (n=3, error bars: standard deviations, *p≦00.05, Mann-Whitney U test).
Cell culture. […] For in vitro osteogenic differentiation assays, passage 6 to passage 9 hPDCs (pool of four different donors) were seeded at 3000 cells/cm^2 in either 96-well plates to assess proliferation and alkaline phosphatase activity or in the middle eight wells of a 24-well plate for quantifying gene expression. […]
Quantitative PCR. […]

B1: EGF: growth factor ligand, 20 ng/ml (protein, UniProt P01133 23-1207, looked up)
Pro-epidermal growth factor: PQHWSCPEGTLAGNGNSTCVGPAPFLIFSHGNSIFRIDTEGTNYEQLVVDAGVSVIMDFHYNEKRIYWVDLERQLLQRVFLNGSRQERVCNIEKNVSGMAINWINEEVIWSNQQEGIITVTDMKGNNSHILLSALKYPANVAVDPVERFIFWSSEVAGSLYRADLDGVGVKALLETSEKITAVSLDVLDKRLFWIQYNREGSNSLICSCDYDGGSVHISKHPTQHNLFAMSLFGDRIFYSTWKMKTIWIANKHTGKDMVRINLHSSFVPLGELKVVHPLAQPKAEDDTWEPEQKLCKLRKGNCSSTVCGQDLQSHLCMCAEGYALSRDRKYCEDVNECAFWNHGCTLGCKNTPGSYYCTCPVGFVLLPDGKRCHQLVSCPRNVSECSHDCVLTSEGPLCFCPEGSVLERDGKTCSGCSSPDNGGCSQLCVPLSPVSWECDCFPGYDLQLDEKSCAASGPQPFLLFANSQDIRHMHFDGTDYGTLLSQQMGMVYALDHDPVENKIYFAHTALKWIERANMDGSQRERLIEEGVDVPEGLAVDWIGRRFYWTDRGKSLIGRSDLNGKRSKIITKENISQPRGIAVHPMAKRLFWTDTGINPRIESSSLQGLGRLVIASSDLIWPSGITIDFLTDKLYWCDAKQSVIEMANLDGSKRRRLTQNDVGHPFAVAVFEDYVWFSDWAMPSVMRVNKRTGKDRVRLQGSMLKPSSLVVVHPLAKPGADPCLYQNGGCEHICKKRLGTAWCSCREGFMKASDGKTCLALDGHQLLAGGEVDLKNQVTPLDILSKTRVSEDNITESQHMLVAEIMVSDQDDCAPVGCSMYARCISEGEDATCQCLKGFAGDGKLCSDIDECEMGVPVCPPASSKCINTEGGYVCRCSEGYQGDGIHCLDIDECQLGEHSCGENASCTNTEGGYTCMCAGRLSEPGLICPDSTPPPHLREDDHHYSVRNSDSECPLSHDGYCLHDGVCMYIEALDKYACNCVVGYIGERCQYRDLKWWELRHAGHGQQQKVIVVAVCVVVLVMLLLLSLWGAHYYRTQKLLSKNPKNPYEESSRDVRSRRPADTEDGMSSCPQPWFVVIKEHQDLKNGGQPVAGEDGQAADGSMQPTSWRQEPQLCGMGTEQGCWIPVSSDKGSCPQVMERSFHMPSYGTQTLEGGVEKPHSLLSANPLWQQRALDPPHQMELTQ
modifications: Pro-epidermal growth factor
notes: growth factor ligand, 20 ng/ml
As to B1, the “RANKL expression in medium devoid of the factor” value is given as “lower levels” and the “role in DLX5 transcription” value is reported as “required”.
